Measured values published in publication PMC9127804.

Target: N-terminal hexahistidine-tagged CrlT (Pseudomonas aeruginosa WK172)
Assay: pull-down; NHis-CrlT and untagged CrlA co-produced from pET28b-His-crlTA in E. coli BL21; Ni-NTA resin, lysis buffer 50 mM potassium phosphate pH 8.0, 300 mM NaCl; Tricine-SDS-PAGE

## untagged antitoxin CrlA (natural protein)
  stoichiometry N: 1
